The source of these data is paper doi:10.1101/2025.10.14.682262.

Changes are numbered by the printed parent chain. Read-outs that look alike come from different tables or passages of the source.

Common to all, as to experiment: EMSA
For orientation: A gel shift assay detects complexes by their altered migration in electrophoresis.

Data set [1] concerns the target T1, PAN (…) WT (Arabidopsis thaliana, UniProt Q9SX27 1-452).
T1 sequence: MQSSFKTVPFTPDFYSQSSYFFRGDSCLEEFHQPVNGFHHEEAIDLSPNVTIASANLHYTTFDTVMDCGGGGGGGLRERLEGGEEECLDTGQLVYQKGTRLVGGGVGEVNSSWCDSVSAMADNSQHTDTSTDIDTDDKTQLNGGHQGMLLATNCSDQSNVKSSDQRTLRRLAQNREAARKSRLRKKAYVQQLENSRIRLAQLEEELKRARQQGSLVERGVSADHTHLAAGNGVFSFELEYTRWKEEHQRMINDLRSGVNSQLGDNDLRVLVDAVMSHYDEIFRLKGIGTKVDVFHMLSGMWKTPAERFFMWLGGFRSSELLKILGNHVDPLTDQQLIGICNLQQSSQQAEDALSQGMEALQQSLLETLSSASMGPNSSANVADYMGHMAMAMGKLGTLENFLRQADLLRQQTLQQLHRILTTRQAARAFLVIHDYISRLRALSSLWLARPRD

In another data set the target is T2, PAN 5 Cys to Ser (Arabidopsis thaliana, UniProt Q9SX27 1-452, C27S;C68S;C87S;C114S;C154S).
T2 sequence: T1 sequence with C27S, C68S, C87S, C114S, C154S

A further data set deals with T3, PAN 6 Cys to Ser (Arabidopsis thaliana, UniProt Q9SX27 1-452, C27S;C68S;C87S;C114S;C154S;C340S).
T3 sequence: T1 sequence with C27S, C68S, C87S, C114S, C154S, C340S

For data set [2], the target named is T1, PAN (…) WT. This is another data set of the same source.

B1: TGACGT WT probe (dsDNA)
DNA 1: ATCAGATCTAATTGACGTGATAGCATATAGA
DNA 2: TCTATATGCTATCACGTCAATTAGATCTGAT
As for B1, the binding result in the data set with PAN (…) WT [1], with PAN 5 Cys to Ser and in the data set with PAN 6 Cys to Ser was “binds” in each case.

B2: TGATTT mutated probe (M) (dsDNA)
DNA 1: B1 DNA 1 with C16T, G17T
DNA 2: B1 DNA 2 with C15A, G16A
For the molecule B2, in the data set with PAN (…) WT [2], the binding result was “no binding”.
